Laboratory results taken from patent US20230331828A1.

B1: h2731 (antibody, V domains shown)
VH: EVQLLESGGGLVQPGGSLRLSCAASGFTFSNYGMSWVRQAPGKGLEWVASIRSGSGRTYYSDNVKGRFTISRDNSKNTLYLQMNSLRAEDTAVYYCVRYDHYSGSSDYWGQGTLVTVSS
VL: DVVMTQSPLSLPVTLGEPASISCKSSQSLLDYDGKTYLNWLLQKPGQSPQRLIYRVTNRDTGVPDRFSGSGSGTDFTLKISRVEAEDVGVYYCWQGTHFPRSFGQGTKVEIK
B2: h3818G (antibody, V domains shown)
VH: EVQLLESGGGLVQPGGSLRLSCAASGFTFANYGMSWVRQAPGKGLEWVASVRSGGSRTYYSDNVKGRFTISRDNSKNTLYLQMNSLRAEDTAVYYCVRYDHYSGSSDYWGQGTLVTVSS
VL: DVVMTQSPLSLPVTLGEPASISCKSSQSLMDTDGKTYLNWLLQKPGQSPQRLIYKVSNRESGVPDRFSGSGSGTDFTLKISRVEAEDVGVYYCWQGTHFPRTFGQGTKVEIK
B3: h2927 (antibody, V domains shown)
VH: EVQLLESGGGLVQPGGSLRLSCAASGFTFSNFGMSWVRQAPGKGLEWVASVRSGSGRTYYSDNVKGRFTISRDNSKNTLYLQMNSLRAEDTAVYYCVRYDHYTGTSDYWGQGTLVTVSS
VL: DVVMTQSPLSLPVTPGEPASISCKSSQSLLDYDGKTYLNWLLQKPGQSPQRLIYKVSNRDSGVPDRFSGSGSGTDFTLKISRVEAEDVGVYYCWQGTHFPRSFGQGTKVEIK
B4: h2929 (antibody, V domains shown)
VH: EVQLLESGGGLVQPGGSLRLSCAASGFTFSNFGMSWVRQAPGKGLEWVASVRSGSGRTYYSDNVKGRFTISRDNSKNTLYLQMNSLRAEDTAVYYCVRYDHYTGTSDYWGQGTLVTVSS
VL: DVVMTQSPLSLPVTPGEPASISCRSSQSLVDYDGKTYLNWLLQRPGQSPQRLIYKVSNRDSGVPDRFSGSGSGTDFTLKISRVEAEDVGVYYCWQGSHFPRSYGQGTKVEIK
B5: h2727 (antibody, V domains shown)
VH: EVQLLESGGGLVQPGGSLRLSCAASGFTFSNYGMSWVRQAPGKGLEWVASIRSGSGRTYYSDNVKGRFTISRDNSKNTLYLQMNSLRAEDTAVYYCVRYDHYSGSSDYWGQGTLVTVSS
VL: DVVMTQSPLSLPVTPGEPASISCKSSQSLLDYDGKTYLNWLLQKPGQSPQRLIYKVSNRDSGVPDRFSGSGSGTDFTLKISRVEAEDVGVYYCWQGTHFPRSFGQGTKVEIK
B6: h4917G (antibody, V domains shown)
VH: EVQLLESGGGLVQPGGSLRLSCAASGFTFSNFGMSWVRQAPGKGLEWVASVRSGGGRTYYSDNVKGRFTISRDNSKNTLYLQMNSLRAEDTAVYYCVRYDHYSGTSDYWGQGTLVTVSS
VL: DVVMTQSPLSLPVTLGEPASISCKSSQSLLDSDGKTYLNWLLQKPGQSPQRLIYKVTNRESGVPDRFSGSGSGTDFTLKISRVEAEDVGVYYCWQGTHFPRSFGQGTKVEIK
B7: h49k3G (antibody, V domains shown)
VH: EVQLLESGGGLVQPGGSLRLSCAASGFTFSNFGMSWVRQAPGKGLEWVASVRSGGGRTYYSDNVKGRFTISRDNSKNTLYLQMNSLRAEDTAVYYCVRYDHYSGTSDYWGQGTLVTVSS
VL: DVVMTQSPLSLPVTLGEPASISCKSSQSLLDSDGKTYLNWLLQKPGQSPQRLIYKVSNRDSGVPDRFSGSGSGTDFTLKISRVEAEDVGVYYCWQGTHFPRTFGQGTKVEIK
B8: h2826 (antibody, V domains shown)
VH: EVQLLESGGGLVQPGGSLRLSCAASGFTFSNFGMSWVRQAPGKGLEWVASVRSGSGRTYYSDNVKGRFTISRDNSKNTLYLQMNSLRAEDTAVYYCVRYDHYSGTSDYWGQGTLVTVSS
VL: DVVMTQSPLSLPVTPGEPASISCKSSQSLLDYDGKTYLNWLLQKPGQSPQRLIYKVSNRDSGVPDRFSGSGSGTDFTLKISRVEAEDVGVYYCWQGTHFPRTFGQGTKVEIK
B9: h2926 (antibody, V domains shown)
VH: EVQLLESGGGLVQPGGSLRLSCAASGFTFSNFGMSWVRQAPGKGLEWVASVRSGSGRTYYSDNVKGRFTISRDNSKNTLYLQMNSLRAEDTAVYYCVRYDHYTGTSDYWGQGTLVTVSS
VL: DVVMTQSPLSLPVTPGEPASISCKSSQSLLDYDGKTYLNWLLQKPGQSPQRLIYKVSNRDSGVPDRFSGSGSGTDFTLKISRVEAEDVGVYYCWQGTHFPRTFGQGTKVEIK
B10: h4921G (antibody, V domains shown)
VH: EVQLLESGGGLVQPGGSLRLSCAASGFTFSNFGMSWVRQAPGKGLEWVASVRSGGGRTYYSDNVKGRFTISRDNSKNTLYLQMNSLRAEDTAVYYCVRYDHYSGTSDYWGQGTLVTVSS
VL: DVVMTQSPLSLPVTLGEPASISCKSSQSLLDSDGKTYLNWLLQKPGQSPQRLIYRVTNRDTGVPDRFSGSGSGTDFTLKISRVEAEDVGVYYCWQGTHFPRTFGQGTKVEIK

Target: Aβ plaques in APPxPS1 mouse brain (human) (UniProt P05067)
Sequence (P05067 672-713): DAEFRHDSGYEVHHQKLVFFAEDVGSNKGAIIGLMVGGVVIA
Assay: in vivo target engagement; APPxPS1 mice dosed 3 mg/kg SC weekly for three weeks; anti-human IgG IHC of cerebral cortex, % stained area

Question: How did the Plaque Binding (% ROI) turn out when B1 was run?
Answer: 0.07 % ROI

Target: Aβ plaques in APPxPS1 mouse brain (human) (UniProt P05067)
Assay: in vivo target engagement; APPxPS1 mice dosed 10 mg/kg SC weekly for three weeks; anti-human IgG IHC of cerebral cortex, % stained area

Question: With B1 as the binder, how does the Plaque Binding (% ROI) read?
Answer: 0.079 % ROI

Target: Aβ1-42 fibrils (human)
Sequence (peptide, as listed by the source): as the sequence (P05067 672-713) above
Assay: competition ELISA; plate coated with fibril Aβ42; competitor hBP-biotin; IC50 of test divided by IC50 of hBP

Question: For B2, which IC50 ratio (test:hBP) is on record?
Answer: 1.18

Question: Which IC50 ratio (test:hBP) does the source give for B3 here?
Answer: 1.6

Question: For B4, which IC50 ratio (test:hBP) is on record?
Answer: 1.16

Question: For B5, which IC50 ratio (test:hBP) is on record?
Answer: 3.06

Question: Which IC50 ratio (test:hBP) does the source give for B6 here?
Answer: 2.69

Question: B7 was tested. Which IC50 ratio (test:hBP) did it give?
Answer: 2.16

Question: For B8, which IC50 ratio (test:hBP) is on record?
Answer: 1.1

Question: B9 was tested. Which IC50 ratio (test:hBP) did it give?
Answer: 0.99

Question: With B10 as the binder, how does the IC50 ratio (test:hBP) read?
Answer: 1.01
